Results published in patent US20240093246.

System: cyanobacterial flavodoxin

Row | Substance | flavodoxin photoreduction turnover rate | fold decrease of flavodoxin reduction against WT PSI | linear rate of flavodoxin photoreduction relative to JVD-1b^H6 PSI | linear rate of flavodoxin photoreduction relative to WT^H6 PSI
1 | wild-type photosystem I purified from strain JVD-1B^H6 | 5.7±0.3 Flvd s^-1 (PSI)^-1 |  |  | 
2 | PSI-MeHydA complex (chimeric photosystem I carrying PsaC-MeHydA, from strain ΨH3^H6) | 0.7±0.1 Flvd s^-1 (PSI)^-1 | lowers flavodoxin reduction by a factor of 6-8 | 12.3±2.4% relative to JVD-1b^H6 PSI | ˜15.9±2.4% that of WT^H6
3 | wild-type photosystem I purified from strain WT^H6 (PBC4-2[pBSEP5.8]) | 4.4±0.6 Flvd s^-1 (PSI)^-1 |  |  | 
